For 94 variants, protein stability index results are on record in the supplement of paper PMC10567573.

Sequences and labels used below:
B1: EPB41L3 (parent)
chain: SDYISEFRFAPNHTKELEDKVIEL
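Further: lentivirally expressed fusions sorted by FACS into six bins by GFP to DsRed ratio, PSI derived from sequencing read proportions per bin multiplied by bin number.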

The series covers variants of B1. Put plainly: protein stability index of a GFP-peptide fusion (GPS, HEK-293T) (PSI 1-6); higher = more stable. The note with it: c terminus: a fixed tail appended.
Regarding SDYISEFRFRPNHTKELEDKVIEL, the protein stability index turned out to be 3.54.
To SDYISEFRFEPNHTKELEDKVIEL belongs 4.21; to SDYISEFRFNPNHTKELEDKVIEL, 3.33.
Take SDYISEFRFGPNHTKELEDKVIEL: the protein stability index turned out to be 3.92.
Turning to SDYISEFRFQPNHTKELEDKVIEL, the protein stability index was 2.35.
Turning to SDYISEFRFYPNHTKELEDKVIEL, the protein stability index worked out at 3.09.
To SDYISEFRFMPNHTKELEDKVIEL belongs 3.
To SDYISEFRFPPNHTKELEDKVIEL belongs 3.96.
Under SDYISEFRFWPNHTKELEDKVIEL stands 2.96.
Consider SDYISEFRFIPNHTKELEDKVIEL, for which the protein stability index was 2.33.
Turning to SDYISEFRFCPNHTKELEDKVIEL, the protein stability index amounted to 1.56.
In the case of SDYISEFRFSPNHTKELEDKVIEL, the protein stability index amounted to 2.61.
With SDYISEFRFTPNHTKELEDKVIEL, the protein stability index was found to be 2.05.
On to SDYISEFRFVPNHTKELEDKVIEL, for which the protein stability index amounted to 1.84.
In the case of SDYISEFRFHPNHTKELEDKVIEL, the protein stability index was 1.86.
On to SDYISEFRFFPNHTKELEDKVIEL, for which the protein stability index stood at 3.3.
Under SDYISEFRFKPNHTKELEDKVIEL stands 3.99; under SDYISEFRFDPNHTKELEDKVIEL, 4.37; under SDYISEFRFLPNHTKELEDKVIEL, 3.45.
Under SDYISEFRFAPNHTKETEDKVIEL stands 1.98; under SDYISEFRFAPNHTKEWEDKVIEL, 1.77; under SDYISEFRFAPNHTKEPEDKVIEL, 1.96.
For SDYISEFRFAPNHTKEMEDKVIEL, the protein stability index is 2.47.
To SDYISEFRFAPNHTKEQEDKVIEL belongs 2.18.
Under SDYISEFRFAPNHTKECEDKVIEL stands 2.05; under SDYISEFRFAPNHTKEEEDKVIEL, 2.32.
To SDYISEFRFAPNHTKEVEDKVIEL belongs 2.68.
SDYISEFRFAPNHTKEHEDKVIEL: the protein stability index was 1.84.
For the variant SDYISEFRFAPNHTKEAEDKVIEL, the protein stability index was 1.87.
As to SDYISEFRFAPNHTKEREDKVIEL, the protein stability index came out at 1.27.
To SDYISEFRFAPNHTKEGEDKVIEL belongs 1.97.
Under SDYISEFRFAPNHTKEKEDKVIEL stands 2.07; under SDYISEFRFAPNHTKENEDKVIEL, 2.17; under SDYISEFRFAPNHTKEDEDKVIEL, 2.51.
Under SDYISEFRFAPNHTKEFEDKVIEL stands 2.86.
Regarding SDYISEFRFAPNHTKEIEDKVIEL, the protein stability index worked out at 2.37.
In the case of SDYISEFRFAPNHTKEYEDKVIEL, the protein stability index is 2.59.
SDYISEFRFAPNHTKESEDKVIEL: the protein stability index came to 1.84.
Regarding SDYISEFRFAPHHTKELEDKVIEL, the protein stability index is 1.95.
Under SDYISEFRFAPSHTKELEDKVIEL stands 2.21; under SDYISEFRFAPKHTKELEDKVIEL, 2.18; under SDYISEFRFAPQHTKELEDKVIEL, 2.35.
To SDYISEFRFAPDHTKELEDKVIEL belongs 3.9; to SDYISEFRFAPMHTKELEDKVIEL, 1.89.
For the variant SDYISEFRFAPVHTKELEDKVIEL, the protein stability index was determined as 2.23.
Under SDYISEFRFAPAHTKELEDKVIEL stands 2.2.
SDYISEFRFAPPHTKELEDKVIEL: the protein stability index was 2.19.
In the case of SDYISEFRFAPLHTKELEDKVIEL, the protein stability index was 2.2.
To SDYISEFRFAPYHTKELEDKVIEL belongs 2.1; to SDYISEFRFAPCHTKELEDKVIEL, 1.47; to SDYISEFRFAPIHTKELEDKVIEL, 1.82.
As to SDYISEFRFAPRHTKELEDKVIEL, the protein stability index turned out to be 1.43.
SDYISEFRFAPGHTKELEDKVIEL: the protein stability index came out at 1.83.
As for SDYISEFRFAPWHTKELEDKVIEL, the protein stability index was found to be 1.5.
Turning to SDYISEFRFAPEHTKELEDKVIEL, the protein stability index came to 3.54.
SDYISEFRFAPFHTKELEDKVIEL: the protein stability index came out at 1.9.
Under SDYISEFRFAPTHTKELEDKVIEL stands 2.2; under SDYISEFRFAHNHTKELEDKVIEL, 1.88.
On to SDYISEFRFAMNHTKELEDKVIEL, for which the protein stability index is 2.65.
To SDYISEFRFAKNHTKELEDKVIEL belongs 2.3; to SDYISEFRFAANHTKELEDKVIEL, 2.68; to SDYISEFRFANNHTKELEDKVIEL, 2.26.
Under SDYISEFRFAENHTKELEDKVIEL stands 4.36; under SDYISEFRFAINHTKELEDKVIEL, 2.49; under SDYISEFRFALNHTKELEDKVIEL, 2.11.
To SDYISEFRFAQNHTKELEDKVIEL belongs 2.57.
In the case of SDYISEFRFAVNHTKELEDKVIEL, the protein stability index was determined as 2.23.
As to SDYISEFRFATNHTKELEDKVIEL, the protein stability index worked out at 2.82.
In the case of SDYISEFRFARNHTKELEDKVIEL, the protein stability index was 2.64.
For SDYISEFRFAWNHTKELEDKVIEL, the protein stability index amounted to 2.33.
Under SDYISEFRFAFNHTKELEDKVIEL stands 2.16; under SDYISEFRFACNHTKELEDKVIEL, 2.12.
To SDYISEFRFADNHTKELEDKVIEL belongs 4.29.
On to SDYISEFRFAGNHTKELEDKVIEL, for which the protein stability index came out at 2.44.
To SDYISEFRFAYNHTKELEDKVIEL belongs 1.8.
Turning to SDYISEFRFASNHTKELEDKVIEL, the protein stability index was 2.26.
To SDYISEFRFAPNQTKELEDKVIEL belongs 2.46; to SDYISEFRFAPNTTKELEDKVIEL, 2.08; to SDYISEFRFAPNRTKELEDKVIEL, 1.94.
Under SDYISEFRFAPNITKELEDKVIEL stands 2.28; under SDYISEFRFAPNATKELEDKVIEL, 2.84; under SDYISEFRFAPNMTKELEDKVIEL, 2.06.
As to SDYISEFRFAPNPTKELEDKVIEL, the protein stability index is 1.99.
SDYISEFRFAPNYTKELEDKVIEL: the protein stability index worked out at 2.35.
Under SDYISEFRFAPNLTKELEDKVIEL stands 2.31; under SDYISEFRFAPNKTKELEDKVIEL, 2.29.
Regarding SDYISEFRFAPNSTKELEDKVIEL, the protein stability index is 2.06.
For the variant SDYISEFRFAPNVTKELEDKVIEL, the protein stability index came to 1.59.
Consider SDYISEFRFAPNFTKELEDKVIEL, for which the protein stability index was found to be 1.92.
For SDYISEFRFAPNGTKELEDKVIEL, the protein stability index is 2.16.
Under SDYISEFRFAPNNTKELEDKVIEL stands 2.36; under SDYISEFRFAPNWTKELEDKVIEL, 1.72; under SDYISEFRFAPNCTKELEDKVIEL, 2.19.
Under SDYISEFRFAPNETKELEDKVIEL stands 3.3.
